# Measurements from publication PMC10241913 (Nature Communications, 2023).
# What was measured:
# Conditions in all cases: both partners purified
# p97-ΔD2-C (1–480) = biological target: T1, p97-ΔD2-C (1–480) (UniProt P55072 1-480); test: fluorescence polarisation; fluorescence anisotropy; Atto594-labeled UBXD1 proteins, p97 constructs titrated; 50 mM NaKPi pH 7.5, 25 °C; all fitted with stoichiometry n = 1
# T1 construct: p97/VCP, residues 1-480; The pull-down methods give the concentration of the p97 variant as hexamer; also called ND1L; source: E. coli BL21 DE3 (T1r), purified (Ni-NTA, anion exchange)
# p97-ΔC (1–766) = biological target: T2, p97-ΔC (1–766) (UniProt P55072 1-766); test: as above
# T2 construct: p97/VCP, residues 1-766; source: E. coli BL21 DE3 (T1r), purified (Ni-NTA, anion exchange)
# p97-wt (1–806) = biological target: T3, p97-wt (1–806) (UniProt P55072 1-806); test: as above
# T3 construct: p97/VCP, residues 1-806; also called VCP; p97-fl; source: E. coli BL21 DE3 (T1r), purified (Ni-NTA, anion exchange)
# [1] = biological target: T4, ubiquitin-GST fusion protein (Ub-GST) (UniProt P0CG48 1-76); test: pull-down; screen: 25 μM ubiquitin-GST, 1 μM p97 (hexamer) and equal amounts of UBXD1 variant (released from GSH beads by PreScission) with GSH beads, 30 min, 4 °C, IP buffer
# T4 construct: source: E. coli BL21 DE3 (T1r), purified
# T2 sequence (P55072 1-766, stated change not applied): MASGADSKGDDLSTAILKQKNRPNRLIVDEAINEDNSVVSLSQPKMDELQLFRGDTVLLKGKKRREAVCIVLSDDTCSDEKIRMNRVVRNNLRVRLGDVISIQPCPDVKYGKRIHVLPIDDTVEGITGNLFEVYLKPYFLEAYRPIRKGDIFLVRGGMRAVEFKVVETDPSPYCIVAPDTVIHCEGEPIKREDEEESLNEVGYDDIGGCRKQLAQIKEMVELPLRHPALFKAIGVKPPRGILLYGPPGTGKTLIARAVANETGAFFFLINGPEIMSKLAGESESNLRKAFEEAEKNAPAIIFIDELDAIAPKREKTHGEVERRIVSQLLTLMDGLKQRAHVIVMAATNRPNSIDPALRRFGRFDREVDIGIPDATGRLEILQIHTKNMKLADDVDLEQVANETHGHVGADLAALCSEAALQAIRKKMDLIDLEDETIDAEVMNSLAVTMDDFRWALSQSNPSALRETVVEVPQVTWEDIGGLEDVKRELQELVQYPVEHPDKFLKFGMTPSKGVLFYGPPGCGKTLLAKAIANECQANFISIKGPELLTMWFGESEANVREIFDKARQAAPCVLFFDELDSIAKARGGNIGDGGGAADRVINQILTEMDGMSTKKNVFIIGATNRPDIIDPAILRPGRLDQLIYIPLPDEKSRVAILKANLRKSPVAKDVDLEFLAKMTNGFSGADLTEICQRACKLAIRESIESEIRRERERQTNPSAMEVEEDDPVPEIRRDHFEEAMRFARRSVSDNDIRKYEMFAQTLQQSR
# T3 sequence (P55072 whole entry, the tested form may be a part): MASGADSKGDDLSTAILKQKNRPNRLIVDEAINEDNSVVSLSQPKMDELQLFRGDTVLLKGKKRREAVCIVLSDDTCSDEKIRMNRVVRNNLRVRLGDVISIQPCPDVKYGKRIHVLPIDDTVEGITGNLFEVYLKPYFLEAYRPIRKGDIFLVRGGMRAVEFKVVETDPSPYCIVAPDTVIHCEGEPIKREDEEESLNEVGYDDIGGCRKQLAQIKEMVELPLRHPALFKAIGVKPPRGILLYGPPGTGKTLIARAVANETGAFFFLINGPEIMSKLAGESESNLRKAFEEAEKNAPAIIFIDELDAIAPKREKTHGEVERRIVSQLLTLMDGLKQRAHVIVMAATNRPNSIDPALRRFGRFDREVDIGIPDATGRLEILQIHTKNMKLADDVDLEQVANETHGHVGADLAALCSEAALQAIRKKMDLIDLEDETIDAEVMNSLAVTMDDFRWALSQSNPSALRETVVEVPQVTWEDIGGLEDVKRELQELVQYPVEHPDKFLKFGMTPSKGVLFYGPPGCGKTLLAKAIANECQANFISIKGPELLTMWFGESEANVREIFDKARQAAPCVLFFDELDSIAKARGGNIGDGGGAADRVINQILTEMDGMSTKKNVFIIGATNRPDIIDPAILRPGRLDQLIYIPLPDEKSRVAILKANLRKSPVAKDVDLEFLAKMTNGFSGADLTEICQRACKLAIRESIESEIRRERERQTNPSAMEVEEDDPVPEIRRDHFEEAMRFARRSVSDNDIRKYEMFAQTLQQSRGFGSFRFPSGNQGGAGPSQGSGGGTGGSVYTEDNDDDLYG
# T1 sequence (P55072 1-480, stated change not applied): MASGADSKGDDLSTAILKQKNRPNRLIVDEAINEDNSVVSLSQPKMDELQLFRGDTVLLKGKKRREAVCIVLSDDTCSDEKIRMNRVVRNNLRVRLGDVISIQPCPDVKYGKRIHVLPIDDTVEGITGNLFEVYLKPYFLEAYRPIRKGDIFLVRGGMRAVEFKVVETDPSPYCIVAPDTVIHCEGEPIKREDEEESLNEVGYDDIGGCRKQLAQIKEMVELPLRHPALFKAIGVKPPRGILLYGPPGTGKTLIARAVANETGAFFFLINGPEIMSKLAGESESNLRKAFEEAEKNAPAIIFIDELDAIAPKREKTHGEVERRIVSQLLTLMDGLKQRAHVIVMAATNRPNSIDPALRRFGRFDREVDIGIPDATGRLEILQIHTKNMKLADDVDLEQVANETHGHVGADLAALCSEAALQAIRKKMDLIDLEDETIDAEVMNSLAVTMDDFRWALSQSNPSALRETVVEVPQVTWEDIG
Kd (p97-ΔC (1–766)) [µM],binding result [1],Binder,other results
18.6 ± 0.7,–,"UBXD1-ΔUBX-C (1–332), recombinant, for fluorescence anisotropy (domain or fragment, human, UniProt Q9BZV1 1-332, looked up, Atto594 (NHS ester; the UBXD1 proteins were labeled for anisotropy), also called UBX deletion mutant of UBXD1; not shown: GST, N-terminal, cleaved) MKKFFQEFKADIKFKSAGPGQKLKESVGEKAHKEKPNQPAPRPPRQGPTNEAQMAAAAALARLEQKQSRAWGPTSQDTIRNQVRKELQAEATVSGSPEAPGTNVVSEPREEGSAHLAVPGVYFTCPLTGATLRKDQRDACIKEAILLHFSTDPVAASIMKIYTFNKDQDRVKLGVDTIAKYLDNIHLHPEEEKYRKIKLQNKVFQERINCLEGTHEFFEAIGFQKVLLPAQDQEDPEEFYVLSETTLAQPQSLERHKEQLLAAEPVRAKLDRQRRVFQPSPLASQFELPGDFFNLTAEEIKREQRLRSEAVERLSVLRTKAMREKEEQRGLR",Kd (p97-ΔD2-C (1–480)): 26 ± 2 µM
–,–,"UBXD1-eUBX-C (269–441), for fluorescence anisotropy (domain or fragment, human, UniProt Q9BZV1 269-441, looked up, Atto594 (NHS ester; the UBXD1 proteins were labeled for anisotropy), also called eUBX-C domain; not shown: GST, N-terminal, cleaved) KLDRQRRVFQPSPLASQFELPGDFFNLTAEEIKREQRLRSEAVERLSVLRTKAMREKEEQRGLRKYNYTLLRVRLPDGCLLQGTFYARERLGAVYGFVREALQSDWLPFELLASGGQKLSEDENLALNECGLVPSALLTFSWDMAVLEDIKAAGAEPDSILKPELLSAIEKLL",Kd (p97-wt (1–806)): 131 ± 14 µM
–,binds,"UBXD1 Q278A/F286A/L288A (full length, recombinant) (natural protein, human, UniProt Q9BZV1 1-441, looked up, UBXD1 (UBXN6), human, mutant in the context of recombinant UBXD1-fl) MKKFFQEFKADIKFKSAGPGQKLKESVGEKAHKEKPNQPAPRPPRQGPTNEAQMAAAAALARLEQKQSRAWGPTSQDTIRNQVRKELQAEATVSGSPEAPGTNVVSEPREEGSAHLAVPGVYFTCPLTGATLRKDQRDACIKEAILLHFSTDPVAASIMKIYTFNKDQDRVKLGVDTIAKYLDNIHLHPEEEKYRKIKLQNKVFQERINCLEGTHEFFEAIGFQKVLLPAQDQEDPEEFYVLSETTLAQPQSLERHKEQLLAAEPVRAKLDRQRRVFAPSPLASQAEAPGDFFNLTAEEIKREQRLRSEAVERLSVLRTKAMREKEEQRGLRKYNYTLLRVRLPDGCLLQGTFYARERLGAVYGFVREALQSDWLPFELLASGGQKLSEDENLALNECGLVPSALLTFSWDMAVLEDIKAAGAEPDSILKPELLSAIEKLL",–
11.9 ± 0.2,–,"UBXD1-wt (1–441), Atto594-labeled for fluorescence anisotropy with p97 (natural protein, human, UniProt Q9BZV1 1-441, looked up, Atto594 (NHS ester, ratio 1:1.2), not shown: GST, N-terminal, cleaved) MKKFFQEFKADIKFKSAGPGQKLKESVGEKAHKEKPNQPAPRPPRQGPTNEAQMAAAAALARLEQKQSRAWGPTSQDTIRNQVRKELQAEATVSGSPEAPGTNVVSEPREEGSAHLAVPGVYFTCPLTGATLRKDQRDACIKEAILLHFSTDPVAASIMKIYTFNKDQDRVKLGVDTIAKYLDNIHLHPEEEKYRKIKLQNKVFQERINCLEGTHEFFEAIGFQKVLLPAQDQEDPEEFYVLSETTLAQPQSLERHKEQLLAAEPVRAKLDRQRRVFQPSPLASQFELPGDFFNLTAEEIKREQRLRSEAVERLSVLRTKAMREKEEQRGLRKYNYTLLRVRLPDGCLLQGTFYARERLGAVYGFVREALQSDWLPFELLASGGQKLSEDENLALNECGLVPSALLTFSWDMAVLEDIKAAGAEPDSILKPELLSAIEKLL",Kd (p97-wt (1–806)): 1.64 µM
87 ± 1,–,"UBXD1-VIMx (1–441, DI11/12AA, RL62/63AA) (natural protein, human, UniProt Q9BZV1 1-441, looked up, Atto594 (NHS ester; the UBXD1 proteins were labeled for anisotropy), also called UBXD1-VIMx mutant; not shown: GST, N-terminal, cleaved) MKKFFQEFKAAAKFKSAGPGQKLKESVGEKAHKEKPNQPAPRPPRQGPTNEAQMAAAAALAAAEQKQSRAWGPTSQDTIRNQVRKELQAEATVSGSPEAPGTNVVSEPREEGSAHLAVPGVYFTCPLTGATLRKDQRDACIKEAILLHFSTDPVAASIMKIYTFNKDQDRVKLGVDTIAKYLDNIHLHPEEEKYRKIKLQNKVFQERINCLEGTHEFFEAIGFQKVLLPAQDQEDPEEFYVLSETTLAQPQSLERHKEQLLAAEPVRAKLDRQRRVFQPSPLASQFELPGDFFNLTAEEIKREQRLRSEAVERLSVLRTKAMREKEEQRGLRKYNYTLLRVRLPDGCLLQGTFYARERLGAVYGFVREALQSDWLPFELLASGGQKLSEDENLALNECGLVPSALLTFSWDMAVLEDIKAAGAEPDSILKPELLSAIEKLL",Kd (p97-ΔD2-C (1–480)): 466 ± 9 µM
–,binds,"UBXD1 R305A/R307A/V316A (full length, recombinant) (natural protein, human, UniProt Q9BZV1 1-441, looked up, UBXD1 (UBXN6), human, mutant in the context of recombinant UBXD1-fl) MKKFFQEFKADIKFKSAGPGQKLKESVGEKAHKEKPNQPAPRPPRQGPTNEAQMAAAAALARLEQKQSRAWGPTSQDTIRNQVRKELQAEATVSGSPEAPGTNVVSEPREEGSAHLAVPGVYFTCPLTGATLRKDQRDACIKEAILLHFSTDPVAASIMKIYTFNKDQDRVKLGVDTIAKYLDNIHLHPEEEKYRKIKLQNKVFQERINCLEGTHEFFEAIGFQKVLLPAQDQEDPEEFYVLSETTLAQPQSLERHKEQLLAAEPVRAKLDRQRRVFQPSPLASQFELPGDFFNLTAEEIKREQALASEAVERLSALRTKAMREKEEQRGLRKYNYTLLRVRLPDGCLLQGTFYARERLGAVYGFVREALQSDWLPFELLASGGQKLSEDENLALNECGLVPSALLTFSWDMAVLEDIKAAGAEPDSILKPELLSAIEKLL",–
–,binds,"UBXD1 R305A (full length, recombinant) (natural protein, human, UniProt Q9BZV1 1-441, looked up, UBXD1 (UBXN6), human, mutant in the context of recombinant UBXD1-fl) MKKFFQEFKADIKFKSAGPGQKLKESVGEKAHKEKPNQPAPRPPRQGPTNEAQMAAAAALARLEQKQSRAWGPTSQDTIRNQVRKELQAEATVSGSPEAPGTNVVSEPREEGSAHLAVPGVYFTCPLTGATLRKDQRDACIKEAILLHFSTDPVAASIMKIYTFNKDQDRVKLGVDTIAKYLDNIHLHPEEEKYRKIKLQNKVFQERINCLEGTHEFFEAIGFQKVLLPAQDQEDPEEFYVLSETTLAQPQSLERHKEQLLAAEPVRAKLDRQRRVFQPSPLASQFELPGDFFNLTAEEIKREQALRSEAVERLSVLRTKAMREKEEQRGLRKYNYTLLRVRLPDGCLLQGTFYARERLGAVYGFVREALQSDWLPFELLASGGQKLSEDENLALNECGLVPSALLTFSWDMAVLEDIKAAGAEPDSILKPELLSAIEKLL",–
–,binds,"UBXD1 R307A (full length, recombinant) (natural protein, human, UniProt Q9BZV1 1-441, looked up, UBXD1 (UBXN6), human, mutant in the context of recombinant UBXD1-fl) MKKFFQEFKADIKFKSAGPGQKLKESVGEKAHKEKPNQPAPRPPRQGPTNEAQMAAAAALARLEQKQSRAWGPTSQDTIRNQVRKELQAEATVSGSPEAPGTNVVSEPREEGSAHLAVPGVYFTCPLTGATLRKDQRDACIKEAILLHFSTDPVAASIMKIYTFNKDQDRVKLGVDTIAKYLDNIHLHPEEEKYRKIKLQNKVFQERINCLEGTHEFFEAIGFQKVLLPAQDQEDPEEFYVLSETTLAQPQSLERHKEQLLAAEPVRAKLDRQRRVFQPSPLASQFELPGDFFNLTAEEIKREQRLASEAVERLSVLRTKAMREKEEQRGLRKYNYTLLRVRLPDGCLLQGTFYARERLGAVYGFVREALQSDWLPFELLASGGQKLSEDENLALNECGLVPSALLTFSWDMAVLEDIKAAGAEPDSILKPELLSAIEKLL",–
–,binds,"UBXD1 R274A (full length, recombinant) (natural protein, human, UniProt Q9BZV1 1-441, looked up, UBXD1 (UBXN6), human, mutant in the context of recombinant UBXD1-fl) MKKFFQEFKADIKFKSAGPGQKLKESVGEKAHKEKPNQPAPRPPRQGPTNEAQMAAAAALARLEQKQSRAWGPTSQDTIRNQVRKELQAEATVSGSPEAPGTNVVSEPREEGSAHLAVPGVYFTCPLTGATLRKDQRDACIKEAILLHFSTDPVAASIMKIYTFNKDQDRVKLGVDTIAKYLDNIHLHPEEEKYRKIKLQNKVFQERINCLEGTHEFFEAIGFQKVLLPAQDQEDPEEFYVLSETTLAQPQSLERHKEQLLAAEPVRAKLDRQARVFQPSPLASQFELPGDFFNLTAEEIKREQRLRSEAVERLSVLRTKAMREKEEQRGLRKYNYTLLRVRLPDGCLLQGTFYARERLGAVYGFVREALQSDWLPFELLASGGQKLSEDENLALNECGLVPSALLTFSWDMAVLEDIKAAGAEPDSILKPELLSAIEKLL",–
